Where a chain is given by its changes, count along the chain named.
T1: recombinant human RANTES (huRANTES, Peprotech) (human, UniProt P13501 24-91)
T1 sequence: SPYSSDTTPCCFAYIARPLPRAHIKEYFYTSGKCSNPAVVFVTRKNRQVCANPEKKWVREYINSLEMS

B1: CG11 scFv (scFv)
chain: QVQLVQSGTEVKKPGATVNVSCKISGHLFTDYYIHWVQQAPGKGLEWVGLIDPKDGEIQYAEKFQARVTITADTSTDTVYMELNSLRSEDTAVYYCATEVLSGIRVFPFDPWGQGTLVTVSSQSVLTQPPSVSGAPGQRVTISCTGSSSNIGAGYDVYWYQQFPGKAPKLLIYDTNNRPPGVPDRFSGSKSGTSASLAISGLQTEDEADYYCQSYDIALSNSNVVFGGGTKLTVL
B2: 7B5 scFv (scFv)
chain: QVQLVQSGAEVKKPGASVKVSCKVSGYTLNDFAMHWVRQAPGKGLEWMGGYVPEDGDTIYAQKFQGRVTMTEDTSTDTAYMELSSLRSEDTAVYYCATDPLYSGSLSYWGQGTTVTVSSSYVLTQPPSVSVAPGQTARITCGGNNIESKSVHWYQQKPGQAPVLVVYDDSDRPSGIPERFSGSNSGNTATLTISRVEAGDEADYYCQVWDSGPVWWIFGGGTKLTVL
B3: C8 scFv (scFv)
chain: QVQLVESGGGVVQPGRSLRLSCAASGFTFSSYAMHWVRQAPGKGLEWVAVISYDGSNKYYADSVKGRFTISRDNSKNTLYLQMNSLRAEDTAVYYCARETFPHYYYYYMDVWGRGTLVTVSSSYVLTQPPSVSVAPGQTARITCEGDDTDIGTVNWYQQKPGQAPVLVISEDGYRPSGIPERFSGSNSGNTATLTISRVEAGDEADYYCQFWDVDSDHPVFGGGTQLTVL
B4: E6 scFv (scFv)
chain: QVQLVQSGAEVEKPGASVKVSCRVSGYPLTEIAIHWVRQAPGKGLEWMGSFEPEDAEAIYAQRFQGRVTMTEETSANTAYMELSSLRSEDTAVYFCATDPYYASSGSNYMEVWGRGTLVTVSSNFMLTQPHSVSESPGKTVTISCTGSGGSISSNYVQWYRQRPGSAPSTVIYEDDQRPSGVPDRISGSIDSSSNSASLTISGLTTEDEADYYCHSYDGNNRWVFGGGTKLTVL
B5: D1 scFv (scFv)
chain: EVQLVQSGPEVKKPGATVKISCNVSAETFTDYYIHWVKQAPGRGLEWMGLVDSEEDGETLFAETFRGRVALTADRSTNTAYMELRSLRHDDTAVYYCAAEYGEYGFFQSWGQGTLVTVSSQSVLTQPPSVSGAPGQRVTISCTGSSSNIGADYDVNWYQQLPGTSPKLLIYGDINRPSGVPDRFSASKSGTSASLAITGLQAEDEADYYCQSFDNSLSGSVIFGGGTKLTVL
B6: 1D9 scFv (scFv)
chain: QVQLVQSGAEVKKPGASVKVSCKVSGYTLTEFAMHWVRQAPGKGLEWMGGFVPEDGETIYAQKFQGRVTMTEDTSTDTAYMELSSLRSEDTAVYYCATDPLYTPGLEPWGQGTTVTVSSSYVLTQPPSVSVAPGQTARITCGGNNIESKSVHWYQQKPGQAPVLVVYDDSDRPSGIPERFSGSNSGNTATLTISRVEAGDEADYYCQVWDSNTDHWVFGGGTKLTVL
B7: 5E1 scFv (scFv)
chain: B2 chain with P100Y, S103I, G104P, G212N, P213T, V214D, W215H, I217V, L224V
B8: 6A8 scFv (scFv)
chain: B6 chain with T30N, E31D, F51Y, E57D, T103P, E107Q, L224V
B9: 4D8 scFv (scFv)
chain: B6 chain with T30N, E31D, F51Y, E57D, E107Y, P108V, L224V
B10: 1E4 scFv (scFv)
chain: B6 chain with T103E, P104G, G105S, L106F, E107S, P108V
B11: 3E7 scFv (scFv)
chain: B6 chain with T30N, E31D, F51Y, E57D, T103P, E107S, L224V
B12: E7 scFv (scFv)
chain: QVQLVQSGAEVKKPGSSVKVSCKISGGISDNYALSWVRQAPGQGLEWMGAVIPLVETTSYAQRFQGRLTITADDSLNTLYMELGSLRSDDTAMYYCAREQVAVGPGPTSNRGPDGLDVWGRGTMVTVSSQSVLTQPPSVSGAPGQRVTISCTGSSSNIGDGYDVHWYQQLPGTAPKLLIYGNSNRPSGVPDRFSGSTSGTSASLAIRGLQSEDEADYYCGTWDDILNGWVFGGGTKLTVL
B13: H11 scFv (scFv)
chain: QVQLVQSGAEVKKPGSSVKVSCKASGGISDNYALSWVRQAPGQGLEWMGGFIPLVDTTNYAQRFQGRLTITADDSMSTVYMELRSLRSDDTAMYYCAREQVAVGPGPTSDRGPDGLDVWGQGTMVTVSSQSVLTQPSSVSGAPGHRVTISCTGSNSNLGADYDVHWYQQLPGSAPKLLIYDNNIRPSGVPARFSGSKSGTSASLAITGLQAEDEADYYCQSYDTGLTSSDVIFGGGTKLTVL
B14: E10 antibody, IgG1 format (antibody, V domains shown)
VH: QVQLVESGGGVVQPGRSLRLSCAASGFTFSSYAMHWVRQAPGKGLEWVAVISYDGSNKYYADSVKGRFSISRDNSKNTLYLQMNSLRAEDTAVYYCARETFPHYYYYYMDVWGKGTMVTVSS
VL: SYVLTQPPSVSVAPGQTARISCGGGNFDDEGVHWYQQTPGQAPVLVVYDDTGRPSGIPERFSGSSSGNTATLTISRVEAGDEADYYCQAWDSSNDHPVFGGGTQLTVL
B15: C10 antibody, IgG1 format (antibody, V domains shown)
VH: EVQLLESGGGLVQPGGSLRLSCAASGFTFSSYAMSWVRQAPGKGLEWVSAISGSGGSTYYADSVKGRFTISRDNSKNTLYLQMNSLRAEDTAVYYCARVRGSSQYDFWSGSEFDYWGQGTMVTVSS
VL: SYVLTQPPSVSVAPGKTASISCGGDNIGGQNVHWYQQKPGQAPVLVIYYDTDRPSGIPERFSGSNSGNTATLSISRVEAADEADYYCQVWDVDSDHPWVFGGGTKLTVL
B16: E6 antibody, IgG1 format (antibody, V domains shown)
VH: QVQLVQSGAEVEKPGASVKVSCRVSGYPLTEIAIHWVRQAPGKGLEWMGSFEPEDAEAIYAQRFQGRVTMTEETSANTAYMELSSLRSEDTAVYFCATDPYYASSGSNYMEVWGRGTLVTVSS
VL: NFMLTQPHSVSESPGKTVTISCTGSGGSISSNYVQWYRQRPGSAPSTVIYEDDQRPSGVPDRISGSIDSSSNSASLTISGLTTEDEADYYCHSYDGNNRWVFGGGTKLTVL
B17: G2 antibody, IgG1 format (antibody, V domains shown)
VH: QVQLVQSGAEVKKPGASVKVSCRASGYALTELSIHWVRQAPGKGLEWMGGFDPEDGETIYAQNFQGRVIMTEDTSTDTAYMELSSLKSEDTAVYYCATDLTGSRDSWGQGTLVTVSS
VL: QSVLTQPASVSGSPGQSITISCTGSRSDIGYYNYVSWYQQHPGKVPKLIIYDVTERPSGVSDRFSGSKSANTASLTISGLQAEDEADYYCSSFSSGDTFVVFGGGTKLTVL
B18: BG11 antibody, IgG1 format (antibody, V domains shown)
VH: QVQLVQSGAEVKKPGASVKVSCKVSGYTLTELSMHWVRQAPGKGLEWMGGFDPEDGETIYAQKFQGRVTMTEDTSTDTAYMELSSLRSEDTAVYYCATYSGSSGWWAFDIWGQGTMVTVSS
VL: SSELTQDPAVSVALGQTVRITCQGDSLRSYYASWYQQKPGQAPVLVIYGKNNRPSGIPDRFSGSSSGNTASLTITGAQAEDEADYYCQTWGTGIWVFGGGTKLTVL
B19: 2D1 antibody, IgG1 format (antibody, V domains shown)
VH: QVQLVQSGAEVKKPGASVKVSCKVSGYTLNDFAMHWVRQAPGKGLEWMGGYVPEDGDTIYAQKFQGRVTMTEDTSTDTAYMELSSLRSEDTAVYYCATDPLYSGSLSYWGQGTTVTVSS
VL: SYVLTQPPSVSVAPGQTARITCGGNNIESKSVHWYQQKPGQAPVLVVYDDSDRPSGIPERFSGSNSGNTATLTISRVEAGDEADYYCQVWDSNTDHWVFGGGTKVTVL
B20: 5E1 antibody, IgG1 format (antibody, V domains shown)
VH: B19 VH with P100Y, S103I, G104P
VL: B19 VL
B21: 4D8 antibody, IgG1 format (antibody, V domains shown)
VH: B19 VH with S103T, G104P, S105G, S107Y, Y108V
VL: B19 VL
B22: 7B5 antibody, IgG1 format (antibody, V domains shown)
VH: B19 VH
VL: B19 VL with N93G, T94P, D95V, H96W, V98I, V105L
B23: 6A8 antibody, IgG1 format (antibody, V domains shown)
VH: B19 VH with S103P, G104P, S105G, S107Q, Y108P
VL: B19 VL
B24: 3E7 antibody, IgG1 format (antibody, V domains shown)
VH: B19 VH with S103P, G104P, S105G, Y108P
VL: B19 VL
B25: A5 antibody, IgG1 format (antibody, V domains shown)
VH: QVQLVQSGAEVKKPGASVKVSCKVSGYALSELSIHWVRQAPGKGLEWMSYIDPEDGEPIYAQKFQGRATMTEDSSTDTAYMEMGSLTSDDTAVYYCAGVTGSTSDAFDLWGRGTLVTVSS
VL: SYVLTQDPSVSVAPGQTARITCGGANLWGLGVHWYQQKSGQAPVLVVSDNSDRASGIPERFSGSNSGTTATLTLSRVEVGDEADYYCQVWDSSSDHWVFGGRTKLTVL

biological target: T1, recombinant human RANTES (huRANTES, …); experiment: cell-based or functional assay

| Chemotaxis IC50 (nM); L1.2 cells expressing hCCR5, 1 nM huRANTES; scFv format [nM] | Binder |
| --- | --- |
| 3.6 | B1 |
| 1.6 | B2 |
| 90 | B3 |
| 72 | B4 |
| 22 | B5 |
| 0.82 | B6 |
| 0.2 | B7 |
| 0.94 | B8 |
| 0.08 | B9 |
| 1.25 | B10 |
| 0.47 | B11 |
| 3.8 | B12 |
| 4.3 | B13 |

biological target: T1, recombinant human RANTES (huRANTES, …); experiment: cell-based or functional assay; remark: another data set of the same source

| Chemotaxis IC50 (nM), 1 nM huRANTES; L1.2-hCCR5 cells; IgG1 format [nM] | Calcium Flux IC50 (nM), 10 nM rhuRANTES; L1.2-hCCR5 cells; IgG1 format [nM] | Chemotaxis IC50 (nM), 0.2 nM huRANTES; L1.2-hCCR5 cells; IgG1 format [nM] | Binder |
| --- | --- | --- | --- |
| 16 |  |  | B14 |
| 17 |  |  | B15 |
| 14 | 12.7 |  | B16 |
| 18.4 |  |  | B17 |
| 29 | 7.7 |  | B18 |
| 1.7 |  | 1.3 | B19 |
| 0.82 |  | 0.25 | B20 |
| 1.16 |  | 0.22 | B21 |
| 1.1 |  | 0.31 | B22 |
| 0.74 |  | 0.31 | B23 |
| 0.68 |  | 0.25 | B24 |
| 13.2 |  |  | B25 |

— patent publication US20120201826A1 (NOV IMMUNE S A, published 2012)
